This passage reports Km and kcat results from article PMC3517013.

Substrate in series [1]: OCC1=C[C@H](N[C@H]2C[C@H](CO)[C@@H](O[C@@H]3O[C@H](CO)[C@@H](O)[C@H](O)[C@H]3O)[C@H](O)[C@H]2O)[C@H](O)[C@@H](O)[C@@H]1O
In words: purified protein. The class given is biochemical, Streptomyces hygroscopicus. Conditions: apparent; co-substrate α-ketoglutarate, Fe(II); hydroxylation at C-6'.

Substrate in series [2]: O=C(O)CCC(=O)C(=O)O
In words: purified protein. The class given is biochemical, Streptomyces hygroscopicus. The conditions noted are these: apparent; co-substrate validamycin A, Fe(II).

B1: VldW (Streptomyces hygroscopicus subsp. limoneus) (protein)
chain: MTGSVPIVDLEAWRAADEENRASLAEIIDGALHTVGTFLLAGHGVPAELTARMRTAGRSFFDLPWEKKEPHAVQRPHDNGWRGLVKHRTDTIEGTGGAPDLHEAFHMGPTHRTGDDAFDALYYPANKWPAELPELRETALAYTAHMTRVAGAVMEMLAGVLGLEPAFFTSRCEHATWTQSVNWYPSLDTVGQTAEGQMRVGPHTDFGTITLLDRQQGVSGLEVWSEEDGWFAPPFVEGTLLVNLGDLMHQWTDGRWRSLRHRVLAPSASAPQEELVSLVYFFDADPEAELVPLAAPVGGGAGMPTVNVGETILKKNIQMLTDLKGHGLFQGELSLSRPGSADSPGSSPADDHPSRPGRHPAQGPQ
In the case of B1, in “purified protein [1]”, the Km was 303 ± 36 µM and the kcat was 0.0162 ± 0.00233 s⁻¹. Moreover, in “purified protein [2]”, the Km is 19 ± 3.5 µM and the kcat was determined as 0.0162 ± 0.00233 s⁻¹.
